Results as given in paper PMC7525490, “Uridine diphosphate N-acetylglucosamine orchestrates the interaction of GlmR with either YvcJ or GlmS in Bacillus subtilis” (Scientific Reports, 2020).

Key:
YvcJ = molecular target: T1, YvcJ (Bacillus subtilis, UniProt O06973); test: thermal shift assay (SYPRO Orange) with apparent KD; supported by limited proteolysis with endoproteinase Glu-C; format: binding
T1 construct: 6His-tagged recombinant YvcJ
T1 sequence (O06973 1-295): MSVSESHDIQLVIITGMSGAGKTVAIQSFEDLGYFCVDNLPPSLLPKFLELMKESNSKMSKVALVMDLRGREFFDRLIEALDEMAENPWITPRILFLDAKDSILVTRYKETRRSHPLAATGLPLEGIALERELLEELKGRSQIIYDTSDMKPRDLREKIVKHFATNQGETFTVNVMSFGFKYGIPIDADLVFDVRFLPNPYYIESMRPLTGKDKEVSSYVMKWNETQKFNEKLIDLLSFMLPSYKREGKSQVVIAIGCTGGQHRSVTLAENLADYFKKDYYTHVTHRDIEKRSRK

[1] = molecular target: T2, YvcJ, purified 6His-tagged protein (Bacillus subtilis, UniProt O06973 1-295); test: ITC; 1 mM UDP-GlcNAc
T2 chain: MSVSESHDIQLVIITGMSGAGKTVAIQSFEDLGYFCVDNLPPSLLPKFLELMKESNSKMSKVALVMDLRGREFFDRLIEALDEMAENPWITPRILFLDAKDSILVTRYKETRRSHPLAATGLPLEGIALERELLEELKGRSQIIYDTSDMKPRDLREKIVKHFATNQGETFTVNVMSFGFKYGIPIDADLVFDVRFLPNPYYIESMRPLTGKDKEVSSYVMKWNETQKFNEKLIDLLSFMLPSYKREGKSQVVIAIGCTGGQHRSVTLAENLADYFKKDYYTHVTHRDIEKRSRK

[2] = molecular target: T2, YvcJ, purified 6His-tagged protein
[3] = molecular target: T3, GlmS, glucosamine-6-phosphate synthase from B. subtilis, with a C-terminal 6His-tag (Bacillus subtilis 168, UniProt P0CI73 1-600); test: cell-based or functional assay
T3 sequence (looked up): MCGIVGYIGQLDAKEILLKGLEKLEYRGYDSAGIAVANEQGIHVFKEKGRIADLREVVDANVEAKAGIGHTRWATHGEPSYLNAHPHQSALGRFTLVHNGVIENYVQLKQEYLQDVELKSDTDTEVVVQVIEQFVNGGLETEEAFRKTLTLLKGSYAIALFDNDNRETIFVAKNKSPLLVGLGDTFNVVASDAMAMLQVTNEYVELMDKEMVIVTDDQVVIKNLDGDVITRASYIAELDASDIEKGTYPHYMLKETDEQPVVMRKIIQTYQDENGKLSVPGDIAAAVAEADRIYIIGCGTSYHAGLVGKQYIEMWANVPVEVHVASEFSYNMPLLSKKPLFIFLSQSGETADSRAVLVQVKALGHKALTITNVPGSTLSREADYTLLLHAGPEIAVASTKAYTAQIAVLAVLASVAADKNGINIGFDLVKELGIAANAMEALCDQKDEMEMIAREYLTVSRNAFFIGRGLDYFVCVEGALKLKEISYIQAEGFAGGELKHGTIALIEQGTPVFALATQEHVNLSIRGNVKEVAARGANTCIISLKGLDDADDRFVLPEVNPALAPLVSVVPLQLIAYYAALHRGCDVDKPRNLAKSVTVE

[4] = molecular target: the molecule itself; test: dynamic light scattering; 24 µM YvcJ alone, without or with 0.4 mM UDP-GlcNAc; 25 °C; 50 mM Tris-HCl pH 7.5, 50 mM NaCl, 5% glycerol
[5] = molecular target: the molecule itself; test: dynamic light scattering; 24 µM YvcJ with 7 µM GlmR (ratio 1:0.3 YvcJ:GlmR) and 0.4 mM UDP-GlcNAc; 25 °C; 50 mM Tris-HCl pH 7.5, 50 mM NaCl, 5% glycerol

With `CC(=O)N[C@H]1[C@@H](OP(=O)(O)OP(=O)(O)OC[C@H]2O[C@@H](n3ccc(=O)[nH]c3=O)[C@H](O)[C@@H]2O)O[C@H](CO)[C@@H](O)[C@@H]1O` [UDP-GlcNAc] the Kd (YvcJ) was 280 ± 470 µM.

B1: GlmR (formerly YvcK), purified 6His-tagged protein (natural protein)
chain: MGQKPKIAIFGGGTGLSVLLRGLKHKPVDITAIVTVADDGGSSGRLRNELKIPPPGDIRNVLAALSDVEPLVEDLFQHRFNKGNDLTGHSLGNLILAAMTNITGDFFHAVTEMSKVLNVRGKVLPAANASVVLHAEMEDGRVVSGESTIPEYGQRIKRVFLTPEQIDPLPETIDVIREADLIIIGPGSLYTSILPNLLVPKIGEEVIKAPAKKVYICNVMTQPGETLHYTAADHVKALNQHMGCGFIDTILVNSEDIPDEIKRKYEMESARPVDFDIEELKAMGLEVIRDQIVTYKNDVIRHDTHKVASLLVDLLKE
For B1, the Kd [1] was 9.03 µM, the hydrodynamic size of YvcJ by dynamic light scattering; 24 µM YvcJ titrated with GlmR at a ratio 1:0.3 in the presence of 0.4 mM UDP-GlcNAc [2] was 124 nm and the “GlmS specific activity (GlcN6P produced, enzyme-coupled assay with GNA-1, CoASH at 412 nm, 37 °C); 7.3 µM GlmS with 0 to 32.1 µM GlmR, no UDP-GlcNAc” value [3] was 16 fold.

B2: YvcJ, purified 6His-tagged protein (natural protein, Bacillus subtilis, UniProt O06973 1-295, looked up)
chain: MSVSESHDIQLVIITGMSGAGKTVAIQSFEDLGYFCVDNLPPSLLPKFLELMKESNSKMSKVALVMDLRGREFFDRLIEALDEMAENPWITPRILFLDAKDSILVTRYKETRRSHPLAATGLPLEGIALERELLEELKGRSQIIYDTSDMKPRDLREKIVKHFATNQGETFTVNVMSFGFKYGIPIDADLVFDVRFLPNPYYIESMRPLTGKDKEVSSYVMKWNETQKFNEKLIDLLSFMLPSYKREGKSQVVIAIGCTGGQHRSVTLAENLADYFKKDYYTHVTHRDIEKRSRK
notes: Cloned BamHI/XhoI in pET21: the His tag is probably C-terminal and vector residues may precede Met1 (surmised); also called RapZ homologue; source: purified (Ni2+-NTA resin, PD-10 column) as previously described
In the case of B2, the “stoichiometry N” value [4] is reported as about 15 molecules and the “stoichiometry N” value [5] is reported as 5 molecules.
